This experiment has as its target T1, Xeroderma Pigmentosum group C (XPC) (human, UniProt Q01831 1-940).
T1 sequence (looked up): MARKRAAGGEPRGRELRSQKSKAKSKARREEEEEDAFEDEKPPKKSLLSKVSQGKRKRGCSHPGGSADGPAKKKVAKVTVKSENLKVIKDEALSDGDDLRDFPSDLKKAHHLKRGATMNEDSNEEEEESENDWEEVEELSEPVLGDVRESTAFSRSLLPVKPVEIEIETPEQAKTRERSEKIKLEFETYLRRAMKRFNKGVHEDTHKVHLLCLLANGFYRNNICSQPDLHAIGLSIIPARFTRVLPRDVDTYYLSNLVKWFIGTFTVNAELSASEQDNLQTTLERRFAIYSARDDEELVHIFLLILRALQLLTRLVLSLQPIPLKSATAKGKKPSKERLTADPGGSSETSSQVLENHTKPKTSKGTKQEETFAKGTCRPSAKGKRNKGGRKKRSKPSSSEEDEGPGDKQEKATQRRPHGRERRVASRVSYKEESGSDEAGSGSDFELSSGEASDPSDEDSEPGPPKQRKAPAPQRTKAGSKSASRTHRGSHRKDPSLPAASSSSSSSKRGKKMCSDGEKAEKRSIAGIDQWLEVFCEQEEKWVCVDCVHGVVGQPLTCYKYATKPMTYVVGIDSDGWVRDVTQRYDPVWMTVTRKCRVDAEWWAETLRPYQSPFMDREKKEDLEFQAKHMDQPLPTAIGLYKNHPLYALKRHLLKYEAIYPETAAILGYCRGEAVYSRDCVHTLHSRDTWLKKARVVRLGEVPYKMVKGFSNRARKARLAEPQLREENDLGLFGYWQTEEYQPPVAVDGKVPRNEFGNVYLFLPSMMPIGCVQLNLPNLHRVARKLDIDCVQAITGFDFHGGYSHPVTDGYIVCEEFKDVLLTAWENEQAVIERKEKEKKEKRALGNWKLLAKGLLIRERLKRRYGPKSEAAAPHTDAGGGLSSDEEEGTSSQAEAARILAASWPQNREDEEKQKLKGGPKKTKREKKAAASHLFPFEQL
As to the kind of experiment: co-IP.

B1: Rad23B (natural protein, human, UniProt P54727 1-409, looked up)
chain: MQVTLKTLQQQTFKIDIDPEETVKALKEKIESEKGKDAFPVAGQKLIYAGKILNDDTALKEYKIDEKNFVVVMVTKPKAVSTPAPATTQQSAPASTTAVTSSTTTTVAQAPTPVPALAPTSTPASITPASATASSEPAPASAAKQEKPAEKPAETPVATSPTATDSTSGDSSRSNLFEDATSALVTGQSYENMVTEIMSMGYEREQVIAALRASFNNPDRAVEYLLMGIPGDRESQAVVDPPQAASTGAPQSSAVAAAAATTTATTTTTSSGGHPLEFLRNQPQFQQMRQIIQQNPSLLPALLQQIGRENPQLLQQISQHQEHFIQMLNEPVQEAGGQGGGGGGGSGGIAEAGSGHMNYIQVTPQEKEAIERLKALGFPEGLVIQAYFACEKNENLAANFLLQQNFDED
On to B1, for which the binding result was “binds”.

For the origin of these results see PMC2811759 (Biochemistry, 2010).
